Changes are numbered by the printed parent chain. Ends that are not written are not given here. * marks the point of attachment. FITC = O=C1OC2(c3ccc(O)cc3Oc3cc(O)ccc32)c2ccc(NC(=S)*)cc21
B1: synthetic TbtA leader peptide derivatized with fluorescein isothiocyanate (FITC) at the N-terminus (peptide)
chain: {FITC}-MDLNDLPMDVFELADSGVAVESLTAGHGMTEVGA
B2: TbtA L(−32)A (peptide)
chain: MDANDLPMDVFELADSGVAVESLTAGHGMTEVGASCNCFCYICCSCSSA
B3: TbtA V(−17)A (peptide)
chain: B2 chain with A3L, V18A
B4: TbtA S(−19)A (peptide)
chain: B2 chain with A3L, S16A
B5: TbtA H(−8)A (peptide)
chain: B2 chain with A3L, H27A
B6: TbtA wild-type (peptide)
chain: B2 chain with A3L
B7: TbtA F(−24)A (peptide)
chain: B2 chain with A3L, F11A
B8: TbtA M(−6)A (peptide)
chain: B2 chain with A3L, M29A
B9: TbtA S(−13)A (peptide)
chain: B2 chain with A3L, S22A
B10: TbtA D(−26)A (peptide)
chain: B2 chain with A3L, D9A
B11: TbtA D(−30)A (peptide)
chain: B2 chain with A3L, D5A
B12: TbtA L(−12)A (peptide)
chain: B2 chain with A3L, L23A
B13: TbtA D(−33)A (peptide)
chain: B2 chain with D2A, A3L
B14: TbtA V(−3)A (peptide)
chain: B2 chain with A3L, V32A
B15: TbtA E(−14)A (peptide)
chain: B2 chain with A3L, E21A
B16: TbtA T(−11)A (peptide)
chain: B2 chain with A3L, T24A
B17: TbtA D(−20)A (peptide)
chain: B2 chain with A3L, D15A
B18: TbtA V(−15)A (peptide)
chain: B2 chain with A3L, V20A
B19: TbtA E(−23)A (peptide)
chain: B2 chain with A3L, E12A
B20: TbtA L(−29)A (peptide)
chain: B2 chain with A3L, L6A
B21: TbtA N(−31)A (peptide)
chain: B2 chain with A3L, N4A
B22: TbtA V(−25)A (peptide)
chain: B2 chain with A3L, V10A
B23: TbtA E(−4)A (peptide)
chain: B2 chain with A3L, E31A

Columns and labels:
Experiment in all cases: fluorescence polarisation
[1] = target: maltose-binding protein (MBP) tagged TbtB
MBP-TbtD [2] = target: MBP-TbtD
MBP-TbtD [3] = target: MBP-TbtD; remark: listed apart in the source
TbtF = target: TbtF

Binder | Kd [1] [µM] | Kd (MBP-TbtD [2]) [µM] | IC50 (MBP-TbtD [3]) [µM] | IC50 (TbtF) [µM]
B1 | ~20 | ~0.14 |  | 
B2 |  |  | 1.71 ± 0.47 | 1.58 ± 0.36
B3 |  |  | 0.69 ± 0.04 | 0.49 ± 0.05
B4 |  |  | 0.91 ± 0.11 | 1.57 ± 0.46
B5 |  |  | 3.68 ± 0.31 | 0.98 ± 0.06
B6 |  |  | 0.61 ± 0.03 | 0.67 ± 0.03
B7 |  |  | 1.51 ± 0.09 | > 10
B8 |  |  | 0.49 ± 0.07 | 0.45 ± 0.03
B9 |  |  | 2.76 ± 0.18 | 1.41 ± 0.07
B10 |  |  | 6 ± 0.41 | 8.23 ± 1.45
B11 |  |  | 7.28 ± 0.77 | 0.94 ± 0.2
B12 |  |  | 3.29 ± 0.68 | 0.7 ± 0.04
B13 |  |  | 0.72 ± 0.07 | 0.99 ± 0.22
B14 |  |  | 1.35 ± 0.14 | 0.58 ± 0.05
B15 |  |  | 4.47 ± 0.96 | 1.37 ± 0.15
B16 |  |  | 0.45 ± 0.02 | 0.51 ± 0.06
B17 |  |  | 4.13 ± 1.62 | 1.45 ± 0.46
B18 |  |  | 1.06 ± 0.06 | 0.63 ± 0.06
B19 |  |  | 3.46 ± 0.57 | 1.27 ± 0.15
B20 |  |  | > 10 | > 10
B21 |  |  | 1.13 ± 0.08 | 0.57 ± 0.07
B22 |  |  | 2.25 ± 0.2 | 0.62 ± 0.04
B23 |  |  | 0.7 ± 0.02 | 0.53 ± 0.03

Reference: PMC5148741 (Journal of the American Chemical Society, 2016)
